Assays:
[1] = system: O=C[C@H](O)[C@H](O)COP(=O)(O)O; experiment: DHS enzymatic activity assay with recombinant AthDHS3; type: biochemical, Arabidopsis thaliana; settings: other: various concentrations of the substrate; means ± SEM, n = 3; pH 7.4
Protocol: Unless otherwise noted, DHS enzymatic activity was monitored as previously described ([Liu et al., 2008]), with several optimizations for high-throughput assays with eight-strip PCR tubes and a thermal cycler. The enzyme solution (7.7 µL) containing 50 mM HEPES (pH 7.4) was preincubated with an effector molecule(s) at room temperature for 10 min. For assays using recombinant protein and enzyme fraction isolated from plant leaves, 0.01–0.05 µg and approximately 50 µg of proteins were used, respectively. After adding 0.5 µL of 0.1 M DTT, the samples were further incubated at room temperature for 15 min. […] The enzyme reaction was started by adding 6.8 µL of the substrate solution, then incubated at 37°C for 20 min, and terminated by adding 30 µL of 0.6 M trichloroacetic acid. After brief centrifugation, 5 µL of 200 mM NaIO4 (sodium meta-periodate) in 9 N H3PO4 was added to oxidize the enzymatic product and incubate at 25°C for 20 min. To stop the oxidation reaction, 20 µL of 0.75 M NaAsO2 (sodium arsenite), which was dissolved in 0.5 M Na2SO4 and 0.05 M H2SO4, was immediately mixed. After 5 min of incubation at room temperature, one-third of the sample solution was transferred to a new tube to be mixed with 50 µL of 40 mM thiobarbituric acid and incubated at 99°C for 15 min in a thermal cycler. Developed pink chromophore was extracted by putting the final solutions with 600 µL of cyclohexanone in eight-strip solvent-resistant plastic tubes, mixing vigorously and centrifuging them at 4,500 × g for 3 min to separate water- and cyclohexanone-based layers. The absorbance of the pink supernatant was read at 549 nm with the microplate reader (Infinite 200 PRO, TECAN, Männedorf, Switzerland) to calculate DAHP production with the molar extinction coefficient at 549 nm (ε = 549 nm) of 4.5 × 10^4/M/cm. […]
For determination of kinetic parameters, the data of enzymatic activities measured in the presence of various concentration of substrates were calculated with the Michaelis–Menten equation in Graphpad Prism 6 (GraphPad Software, San Diego, CA, USA).

[2] = system: C=C(OP(=O)(O)O)C(=O)O; experiment: purified protein, by the assay type; settings: other: various concentrations of the substrate; means ± SEM, n = 3; pH 7.4

Chain of AthDHS3 (Arabidopsis thaliana) (chain, as listed by the source): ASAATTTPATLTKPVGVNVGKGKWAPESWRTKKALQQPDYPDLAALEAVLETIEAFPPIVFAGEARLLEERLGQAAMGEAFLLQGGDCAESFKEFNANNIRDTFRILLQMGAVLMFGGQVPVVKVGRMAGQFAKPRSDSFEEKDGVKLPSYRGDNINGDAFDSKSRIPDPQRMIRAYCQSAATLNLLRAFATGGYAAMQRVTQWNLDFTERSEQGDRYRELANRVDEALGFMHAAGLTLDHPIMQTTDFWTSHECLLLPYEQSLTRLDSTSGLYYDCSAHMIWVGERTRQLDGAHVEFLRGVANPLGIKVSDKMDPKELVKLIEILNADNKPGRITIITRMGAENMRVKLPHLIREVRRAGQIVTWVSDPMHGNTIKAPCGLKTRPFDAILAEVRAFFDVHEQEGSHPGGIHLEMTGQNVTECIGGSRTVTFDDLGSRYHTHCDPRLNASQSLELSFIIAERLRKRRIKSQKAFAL

AthDHS3 (Arabidopsis thaliana)
Km [1]: 1550 ± 276 µM
kcat [1]: 9.13 ± 0.28 s⁻¹
kcat/Km [1]: 6350 ± 160 M⁻¹ s⁻¹
Km [2]: 706 ± 124 µM
kcat [2]: 8.42 s⁻¹
kcat/Km [2]: 12400 M⁻¹ s⁻¹
